Experimental data taken from publication PMC5876120 (2019).

B1: contactin-2 ECD (protein)
chain: SQTTFGPVFEDQPLSVLFPEESTEEQVLLACRARASPPATYRWKMNGTEMKLEPGSRHQLVGGNLVIMNPTKAQDAGVYQCLASNPVGTVVSREAILRFGFLQEFSKEERDPVKAHEGWGVMLPCNPPAHYPGLSYRWLLNEFPNFIPTDGRHFVSQTTGNLYIARTNASDLGNYSCLATSHMDFSTKSVFSKFAQLNLAAEDTRLFAPSIKARFPAETYALVGQQVTLECFAFGNPVPRIKWRKVDGSLSPQWTTAEPTLQIPSVSFEDEGTYECEAENSKGRDTVQGRIIVQAQPEWLKVISDTEADIGSNLRWGCAAAGKPRPTVRWLRNGEPLASQNRVEVLAGDLRFSKLSLEDSGMYQCVAENKHGTIYASAELAVQALAPDFRLNPVRRLIPAARGGEILIPCQPRAAPKAVVLWSKGTEILVNSSRVTVTPDGTLIIRNISRSDEGKYTCFAENFMGKANSTGILSVRDATKITLAPSSADINLGDNLTLQCHASHDPTMDLTFTWTLDDFPIDFDKPGGHYRRTNVKETIGDLTILNAQLRHGGKYTCMAQTVVDSASKEATVLVRGPPGPPGGVVVRDIGDTTIQLSWSRGFDNHSPIAKYTLQARTPPAGKWKQVRTNPANIEGNAETAQVLGLTPWMDYEFRVIASNILGTGEPSGPSSKIRTREAAPSVAPSGLSGGGGAPGELIVNWTPMSREYQNGDGFGYLLSFRRQGSTHWQTARVPGADAQYFVYSNESVRPYTPFEVKIRSYNRRGDGPESLTALVYSAEEEPRVAPTKVWAKGVSSSEMNVTWEPVQQDMNGILLGYEIRYWKAGDKEAAADRVRTAGLDTSARVSGLHPNTKYHVTVRAYNRAGTGPASPSANATTMKPPPRRPPGNISWTFSSSSLSIKWDPVVPFRNESAVTGYKMLYQNDLHLTPTLHLTGKNWIEIPVPEDIGHALVQIRTTGPGGDGIPAEVHIVRNGGTSMMVEN
B2: Caspr2 ECD (protein)
chain: APSTSQKCDEPLVSGLPHVAFSSSSSISGSYSPGYAKINKRGGAGGWSPSDSDHYQWLQVDFGNRKQISAIATQGRYSSSDWVTQYRMLYSDTGRNWKPYHQDGNIWAFPGNINSDGVVRHELQHPIIARYVRIVPLDWNGEGRIGLRIEVYGCSYWADVINFDGHVVLPYRFRNKKMKTLKDVIALNFKTSESEGVILHGEGQQGDYITLELKKAKLVLSLNLGSNQLGPIYGHTSVMTGSLLDDHHWHSVVIERQGRSINLTLDRSMQHFRTNGEFDYLDLDYEITFGGIPFSGKPSSSSRKNFKGCMESINYNGVNITDLARRKKLEPSNVGNLSFSCVEPYTVPVFFNATSYLEVPGRLNQDLFSVSFQFRTWNPNGLLVFSHFADNLGNVEIDLTESKVGVHINITQTKMSQIDISSGSGLNDGQWHEVRFLAKENFAILTIDGDEASAVRTNSPLQVKTGEKYFFGGFLNQMNNSSHSVLQPSFQGCMQLIQVDDQLVNLYEVAQRKPGSFANVSIDMCAIIDRCVPNHCEHGGKCSQTWDSFKCTCDETGYSGATCHNSIYEPSCEAYKHLGQTSNYYWIDPDGSGPLGPLKVYCNMTEDKVWTIVSHDLQMQTPVVGYNPEKYSVTQLVYSASMDQISAITDSAEYCEQYVSYFCKMSRLLNTPDGSPYTWWVGKANEKHYYWGGSGPGIQKCACGIERNCTDPKYYCNCDADYKQWRKDAGFLSYKDHLPVSQVVVGDTDRQGSEAKLSVGPLRCQGDRNYWNAASFPNPSSYLHFSTFQGETSADISFYFKTLTPWGVFLENMGKEDFIKLELKSATEVSFSFDVGNGPVEIVVRSPTPLNDDQWHRVTAERNVKQASLQVDRLPQQIRKAPTEGHTRLELYSQLFVGGAGGQQGFLGCIRSLRMNGVTLDLEERAKVTSGFISGCSGHCTSYGTNCENGGKCLERYHGYSCDCSNTAYDGTFCNKDVGAFFEEGMWLRYNFQAPATNARDSSSRVDNAPDQQNSHPDLAQEEIRFSFSTTKAPCILLYISSFTTDFLAVLVKPTGSLQIRYNLGGTREPYNIDVDHRNMANGQPHSVNITRHEKTIFLKLDHYPSVSYHLPSSSDTLFNSPKSLFLGKVIETGKIDQEIHKYNTPGFTGCLSRVQFNQIAPLKAALRQTNASAHVHIQGELVESNCGASPLTLSPMSSATDPWHLDHLDSASADFPYNPGQGQAIRNGVNRNSA

Assays:
Caspr2 ECD = target: B2; assay: solid phase binding assay
contactin-2 ECD = target: B1; assay: solid phase binding assay

B1 was tested, and the Kd (Caspr2 ECD) was 15 nM.

With B2 the Kd (contactin-2 ECD) was 12 nM.
